For 5 molecules, Kd results are on record in paper PMC11594316, “Novel DNA Aptamers to Dickkopf-1 Protein and Their Application in Colorimetric Sandwich Assays for Target Detection in Patients with Axial Spondyloarthritis”.

This series concerns the target T1, Dickkopf-1 (DKK-1) (human, UniProt O94907 32-266).
T1 sequence: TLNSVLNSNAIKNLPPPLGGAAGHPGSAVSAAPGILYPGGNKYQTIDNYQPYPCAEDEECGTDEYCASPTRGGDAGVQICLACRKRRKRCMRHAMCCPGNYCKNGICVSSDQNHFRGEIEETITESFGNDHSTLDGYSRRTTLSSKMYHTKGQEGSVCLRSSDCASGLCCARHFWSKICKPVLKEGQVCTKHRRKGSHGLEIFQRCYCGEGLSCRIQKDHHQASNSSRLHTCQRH
Description: ELASA; ELASA: DKK-1 coated at 2 ug/mL, BSA-blocked; aptamer 3.12-100 nM in PBSMT (1x PBS pH 7.4, 5 mM MgCl2, 0.05% Tween 20), 1 h, 25 C. As to conditions: protein: commercial, tags: N-terminal His-tag (stated for the selection protein), label: biotin.

For the setting “three-way junction”, CGGTGTACCCGCATAGACCCTGCGTCCGCTGTATGTACACGTAAGCCG (ssDNA, 3'-amino linker (C6, Spacer 18)) [DK2_48t] yielded a Kd of 3.3 ± 2 nM. In turn, CCTCGGAGTGCGTACAGCAAGCACATATGTGCTCTCCCAGG (ssDNA, 3'-amino linker (C6, Spacer 18)) [DK4_41t] came in with a Kd (three-way junction) of 5.6 ± 3 nM. The same measure, in the same setting: with CACGACTCGGAGTGCGTACAGCAAGCACATATGTGCTCTCCCAGAGCGTG (ssDNA, 3'-amino linker (C6, Spacer 18)) [DK4_50t] the figure was 6.1 ± 2 nM. Consider CGGCATGTATCTGGCTGCTGAGTGTACGATTCCAGTATATATGAGCCG (ssDNA, 3'-amino linker (C6, Spacer 18)) [DK1_48t], for which binding (stem-loop) was characterised by a dissociation constant (Kd) of 10 ± 6 nM.

B1: DK2_58t (ssDNA)
DNA: CGACTCGGTGTACCCGCATAGACCCTGCGTCCGCTGTATGTACACGTAAGCCCTGTCG
modifications: 3'-amino linker (C6, Spacer 18)
For B1, for the setting “three-way junction”, the Kd amounted to 3.6 ± 2 nM.

Usually Kd stands for the constant that tells how readily two partners part at equilibrium.
